This note sets out measurements from patent publication US20220387487A1, “COMPOSITIONS AND METHODS FOR TREATMENT OF CANCER” (Aleta Biotherapeutics Inc., priority 2019, published 2022).

Assay [1] has as its system CLL-1 positive U937 cells. The experiment in a line: Flow cytometry binding of fusion proteins to U937 cells (FMC63-PE detection). More on the design: species or system human. As to conditions: FIG. 20. As for the experimental part: The ability of an expressed biparatopic construct comprising the fusion protein containing a CD19 variant, an anti-CLL-1 scFv, and an anti-CLL-1 VHH (#357) to bind CLL-1 positive U937 cells was evaluated relative to the binding of an expressed construct containing a fusion protein comprised of a CD19 variant and an anti-CLL-1 VHH (#330) and an expressed construct containing a fusion protein comprised of a wild type CD19 and an anti-CLL-1 scFv (#186). […] Approximately 5×10^5 cells were aliquoted per sample. The cells were spun, washed with FB, and then suspended in 100 μl of the biparatopic or monospecific fusion protein dilution (supernatant or purified starting at 10 μg/ml) in FB. The cell/fusion protein mixture was incubated for 30 minutes at 4° C. and then washed 2× with FB. […] After washing 2× with FB, the cells were fixed with a final concentration of 1% PFA in PBS (Thermo Scientific) and then analyzed by flow cytometry (Accuri C6, Becton-Dickinson).
To further confirm the binding and cytotoxicity capabilities of an expressed biparatopic fusion protein comprising a CD19 variant, an anti-CLL-1 scFv, and an anti-CLL-1 VHH, a construct was generated with the same features as construct #357 but lacking the HIS tag. […] The cells were washed twice with FACS buffer, fixed with a final concentration of 1% PFA in PBS (Thermo Scientific) and then analyzed by flow cytometry. […]
(In general: In flow cytometry, cells or beads pass a laser one at a time.)

The target of assay [2] is T1, CLEC12A Q form (Homo sapiens, UniProt Q5QGZ9, K244Q).
T1 construct: transfected with full-length CLEC12A (UniProt Q5QGZ9-1) cDNAs; expressed in transfected cells; host or cells: HEK-293T
T1 sequence (Q5QGZ9 1-275 isoform Q5QGZ9-1 K254Q): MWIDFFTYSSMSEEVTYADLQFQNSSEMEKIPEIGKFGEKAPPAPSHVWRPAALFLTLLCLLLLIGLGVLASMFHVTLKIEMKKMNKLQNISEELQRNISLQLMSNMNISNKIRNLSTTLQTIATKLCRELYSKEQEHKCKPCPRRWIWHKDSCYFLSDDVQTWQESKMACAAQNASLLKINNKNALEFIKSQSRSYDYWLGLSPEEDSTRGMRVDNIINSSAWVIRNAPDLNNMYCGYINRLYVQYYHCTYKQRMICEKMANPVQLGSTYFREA
The experiment in a line: Flow cytometry binding to HEK-293T cells transfected with CLEC12A amino acid 254 Q version. To be noted: FIG. 19. As for the experimental part: (§1) Given the unique binding properties of VHH clone 2H3 relative to the anti-CLEC12A scFv we tested the binding properties of a biparatopic fusion protein containing both the VHH clone 2H3 and an anti-CLEC12A scFv. HEK-293T cells were transfected with full-length CLEC12A (UniProt Q5QGZ9-1) cDNAs expressing the amino acid 254 “K” version of CLEC12A (GenScript) or a version with “Q” at this position generated by mutagenesis. The cells were removed with Accutase and washed with PBS, suspended in 50 μL FACS buffer (FB, PBS+1% BSA and 0.1% sodium azide) and blocked with human Fc block (Becton Dickinson) at room temperature for 10 minutes. Then, 50 μl of the purified fusion proteins #186, #330 or #357 diluted in FACS buffer (starting at 3 μg/ml with 3 fold dilutions) were added. The cell/fusion protein mixture was incubated for 30 minutes at 4° C. and then washed twice with FACS buffer. The cells were suspended in 100 μl of FACS buffer, stained with HIB19-PE (BioLegend […]), and incubated for 30 minutes at 4° C. The cells were washed twice with FACS buffer, fixed with a final concentration of 1% PFA in PBS (Thermo Scientific) and then analyzed by flow cytometry.

Assay [3] has as its target CLEC12A. The experiment in a line: ELISA binding of fusion proteins (FMC63 coat, HRP-anti-His detection). Further details: species or system human. As to conditions: purified fusion protein. As for the experimental part: The binding of the biparatopic fusion proteins to CLEC12A was also examined by ELISA. […] The plate was left to incubate overnight at 4° C. The coated plate was blocked with TBS/0.3% nonfat dry milk (NFD) for 60 minutes at RT.

Assay [4] has as its target T2, CLEC12A K form (Homo sapiens, UniProt Q5QGZ9).
T2 construct: transfected with full-length CLEC12A (UniProt Q5QGZ9-1) cDNAs; host or cells: HEK-293T
T2 sequence (Q5QGZ9 1-275 isoform Q5QGZ9-1): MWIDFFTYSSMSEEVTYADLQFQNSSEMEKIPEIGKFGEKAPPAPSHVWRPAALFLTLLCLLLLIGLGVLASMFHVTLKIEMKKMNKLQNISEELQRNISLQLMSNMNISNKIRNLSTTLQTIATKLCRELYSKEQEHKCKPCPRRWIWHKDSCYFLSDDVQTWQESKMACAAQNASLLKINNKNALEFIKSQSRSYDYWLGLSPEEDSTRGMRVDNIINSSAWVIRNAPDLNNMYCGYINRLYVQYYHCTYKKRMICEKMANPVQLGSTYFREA
The experiment in a line: Flow cytometry binding to HEK-293T cells transfected with CLEC12A amino acid 254 K version. To be noted: FIG. 19. As for the experimental part: as §1

Like-named read-outs stand apart in the source and are kept apart here.

B1: #440: fusion protein comprising an anti-CLEC12A VHH, an anti-CD33 scFv, and a CD19 ECD; SEQ ID NO:321 (protein)
chain: MEFGLSWVFLVALFRGVQCQVQLVQSGAEVKKPGESVKVSCKASGYTFTNYGMNWVKQAPGQGLEWMGWINTYTGEPTYADKFQGRVTMTTDTSTSTAYMEIRNLGGDDTAVYYCARWSWSDGYYVYFDYWGQGTSVTVSSGGGGSGGGGSGGGGSDIVMTQSPDSLTVSLGERTTINCKSSQSVLDSSTNKNSLAWYQQKPGQPPKLLLSWASTRESGIPDRFSGSGSGTDFTLTIDSPQPEDSATYYCQQSAHFPITFGQGTRLEIKGGGGSGGGGSGGGGSGGGGSQVQLQESGGGLVQAGGSLRLSCVASGSIRSINVMGWYRQAPGKQRELVAACASDGNTYYADSVKGRFTISRDNAEKTVYLQMNNLKPDDTAVYYCDANSRGNYYSGQGTQVTVSSTSGPGGQGAGGGGSGGGGSGGGGSGGGGSPEEPLVVKVEEGDTAALWCLKGTSDGPTQQLTWSRESPLKPFLKYSLGVPGLGVHVRPDAISVVIRNVSQQMGGFYLCQPGPPSEKAWQPGWTVNVEGSGELFRWNVSDLGGLGCGLKNRSSEGPSSPSGKLMSPKLYVWAKDRPEIWEGEPPCLPPRDSLNQSLSRDLTVAPGSTLWLSCGVPPDSVSRGPLSWTHVHPKGPKSLLSLELKDDRPARDMWVMGTSLMLPRATAQDAGKWYCHRGNLTMSFHLEITARPSRHHHHHH
For B1, in assay [1], the “binding to U937 cells” value is given as “capable of binding to U937 cells”.

B2: #330: fusion protein comprised of a CD19 variant and an anti-CLL-1 VHH (2H3); SEQ ID NO:305 (protein)
chain: MEFGLSWVFLVALFRGVQCQVQLQESGGGLVQAGGSLRLSCVASGSIRSINVMGWYRQAPGKQRELVAACASDGNTYYADSVKGRFTISRDNAEKTVYLQMNNLKPDDTAVYYCDANSRGNYYSGQGTQVTVSSTSGPGGQGAGGGGSGGGGSGGGGSGGGGSPEEPLVVKVEEGDTAALWCLKGTSDGPTQQLTWSRESPLKPFLKYSLGVPGLGVHVRPDAISVVIRNVSQQMGGFYLCQPGPPSEKAWQPGWTVNVEGSGELFRWNVSDLGGLGCGLKNRSSEGPSSPSGKLMSPKLYVWAKDRPEIWEGEPPCLPPRDSLNQSLSRDLTVAPGSTLWLSCGVPPDSVSRGPLSWTHVHPKGPKSLLSLELKDDRPARDMWVMGTSLMLPRATAQDAGKWYCHRGNLTMSFHLEITARPSRHHHHHH
B2: the “binding to the Q form of CLEC12A” value in assay [2] was “binds very well”. Further, in assay [3] (FMC63 coat, read-out: CLEC12A binding (ELISA EC50)), the EC50 (usually the concentration at which the effect is half-maximal) came out at 0.013 nM. The EC50 in assay [3] (Table 8, read-out: EC50 of binding by ELISA) amounted to 0.01 nM. Moreover, in assay [4], the “binding to the K form of CLEC12A” value is recorded as “very weakly” and the “binding to the K form weaker than to the Q form” value was “greater than 10,000 fold”.
